The series addresses T1, Stat5 (mouse liver nuclear extract, identified by WEMSA immunoblot) (mouse) (UniProt P42232).
T1 sequence: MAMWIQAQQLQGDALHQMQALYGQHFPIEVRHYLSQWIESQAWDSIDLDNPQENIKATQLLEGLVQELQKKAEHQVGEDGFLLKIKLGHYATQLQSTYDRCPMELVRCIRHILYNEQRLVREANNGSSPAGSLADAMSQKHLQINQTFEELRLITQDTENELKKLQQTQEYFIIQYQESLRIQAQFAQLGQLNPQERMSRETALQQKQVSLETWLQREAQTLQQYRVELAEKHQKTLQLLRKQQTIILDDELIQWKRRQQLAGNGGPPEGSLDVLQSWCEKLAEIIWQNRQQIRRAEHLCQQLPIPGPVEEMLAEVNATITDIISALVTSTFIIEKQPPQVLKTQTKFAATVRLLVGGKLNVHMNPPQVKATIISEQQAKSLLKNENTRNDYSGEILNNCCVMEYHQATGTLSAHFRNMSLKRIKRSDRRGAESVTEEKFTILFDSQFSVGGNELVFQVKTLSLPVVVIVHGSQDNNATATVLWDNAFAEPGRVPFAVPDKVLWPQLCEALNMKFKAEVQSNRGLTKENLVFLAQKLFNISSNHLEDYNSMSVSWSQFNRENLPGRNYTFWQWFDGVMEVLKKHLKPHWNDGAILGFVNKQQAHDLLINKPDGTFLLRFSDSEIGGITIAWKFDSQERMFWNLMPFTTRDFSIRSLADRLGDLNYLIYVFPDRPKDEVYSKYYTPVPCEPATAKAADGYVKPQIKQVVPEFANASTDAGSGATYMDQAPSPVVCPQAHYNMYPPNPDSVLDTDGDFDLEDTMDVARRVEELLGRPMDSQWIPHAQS
As to the kind of experiment: EMSA + immunoblot of shifted complex (WEMSA). To be noted: Li-Cor EMSA buffer kit: 1x binding buffer, poly(dI-dC) 1 ug/uL (in 10 mM Tris, 1 mM EDTA, pH 7.5), 25 mM DTT/2.5% Tween-20, 1% NP-40, 100 mM MgCl2 (as listed …). In general terms: A gel shift assay detects complexes by their altered migration in electrophoresis.

With “GTAATTCCTAGATTCATGGAAGAG (double strand) [Stat5 element probe of mouse Tmprss6 promoter]”, the binding signal (% of baseline shift (decreased by 60%)) is 40.

The values are drawn from publication PMC3871639.
